The values below come from patent US20190375786A1, “STABLE PEPTIDES AND METHODS OF USE THEREOF” (Fred Hutchinson Cancer Research Center, priority 2016, published 2019).

Series [1] can be described thus: Resistance to elevated temperature, HPLC. The series is classed as physicochemical. The conditions noted are these: HPLC peak vs untreated peptide; for Resistance to Temperature (75° C.): 75° C. for one hour; for Resistance to Temperature (100° C.): 100° C. for one hour; for Resistance to Temperature (70° C.): 70° C. for one hour. Put shortly:
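Peptides were incubated at room temperature, 70° C or 100° C for one hour in ddH2O; another protocol used 70° C, 75° C or 100° C for one hour in 0.5 mM PBS, then pelleting and analysis of the supernatant. Remaining peptide was measured by C-18 RP-HPLC, 5–45% acetonitrile/0.1% TFA over 10 min.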

Series [2] is described as follows: Resistance to reduction by DTT, RP-HPLC. The series is classed as physicochemical. The conditions noted are these: 10 mM DTT in PBS, room temperature, 30 minutes; HPLC peak vs untreated peptide. The procedure, abridged: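 Peptide (12.5 μg from a 2 mg/ml stock, or 0.015 mM final in PBS) was held 30 min at room temperature with or without 10 mM DTT. Reduced and non-reduced forms were compared by C-18 RP-HPLC using a 5–45% acetonitrile/0.1% TFA gradient over 10 min, with detection at 214 and 280 nm.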

The target in a further series is trypsin (Sus scrofa, UniProt P00761). Put plainly: Trypsin digestion resistance of soluble peptide, RP-HPLC. The series is classed as in vitro ADME, porcine. Also on record: purchased Sigma Aldrich 6567. The conditions noted are these: 500 U/ml trypsin, 30 minutes at 37.5° C.; HPLC peak vs untreated peptide. Put shortly: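 Read-out was RP-HPLC (C-18, water/acetonitrile with 0.1% TFA, 5-45% over 10 min) of peptide left after trypsin treatment. Digest: 12.5 μg peptide, 500 U/ml porcine trypsin, PBS, 37.5° C for 30 min, stopped by soybean trypsin inhibitor; samples then reduced (10 mM DTT) or left non-reduced.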
Chain of trypsin (P00761 9-231): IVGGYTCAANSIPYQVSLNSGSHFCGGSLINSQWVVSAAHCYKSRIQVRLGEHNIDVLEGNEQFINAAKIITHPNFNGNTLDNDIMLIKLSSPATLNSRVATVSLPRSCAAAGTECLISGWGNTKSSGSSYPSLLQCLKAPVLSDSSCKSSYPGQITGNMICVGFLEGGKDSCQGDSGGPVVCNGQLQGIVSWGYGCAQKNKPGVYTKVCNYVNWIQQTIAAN

The target in the next series is pepsin (Sus scrofa, UniProt P00791). Put plainly: Pepsin digestion resistance in simulated gastric fluid, RP-HPLC. The series is classed as in vitro ADME, porcine. The conditions noted are these: 500 U/ml pepsin in SGF pH 1.05, 30 minutes at 37.5° C.; HPLC peak vs untreated peptide. Also noted: purchased Sigma Aldrich P7012. The procedure, abridged: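 Digestion resistance read by reversed-phase HPLC (C-18, 0.1% TFA, 5–45% acetonitrile over 10 min; 214/280 nm) after 12.5 μg peptide spent 30 min at 37.5 °C in pH 1.05 simulated gastric fluid, with or without 500 U/ml pepsin. Some samples quenched with Tris base and DTT.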
Chain of pepsin (P00791 60-385): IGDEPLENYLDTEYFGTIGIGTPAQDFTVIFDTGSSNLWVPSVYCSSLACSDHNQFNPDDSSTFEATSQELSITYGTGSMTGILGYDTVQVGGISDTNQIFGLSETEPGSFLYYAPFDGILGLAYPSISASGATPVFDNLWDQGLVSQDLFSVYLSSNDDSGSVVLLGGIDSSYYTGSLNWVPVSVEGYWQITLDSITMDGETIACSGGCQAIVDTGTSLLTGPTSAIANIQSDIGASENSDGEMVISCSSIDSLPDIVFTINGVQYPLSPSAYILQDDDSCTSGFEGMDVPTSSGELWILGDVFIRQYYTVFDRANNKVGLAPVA

With “20 (GSGHACYRNCWREGNDEETCKERC) [compound 20]”, in series [1], the “Resistance to Temperature (75° C.)” value is reported as “High (A peptide classified as high indicates that the majority (at least 75%) of the HPLC peak of the treated peptide is still present as compared to the HPLC peak of the untreated peptide)”; the “Resistance to Temperature (100° C.)” value is “Moderate (A peptide classified as medium indicates that about half (between 25% and 75%) of the HPLC peak of the treated peptide disappeared as compared to the HPLC peak of the untreated peptide)”. Also, the “Resistance to DTT Reduction (10 mM)” value in series [2] was “Low (A peptide classified as low indicates that the majority (over 75%) of the HPLC peak of the treated peptide disappeared as compared to the HPLC peak of the untreated peptide)”. Further, the “Resistance to Trypsin (500 U/ml)” value with trypsin was “High (A peptide classified as high indicates that the majority (at least 75%) of the HPLC peak of the treated peptide is still present as compared to the HPLC peak of the untreated peptide)”. Also, the “Resistance to Pepsin (500 U/ml)” value with pepsin is “High (A peptide classified as high indicates that the majority (at least 75%) of the HPLC peak of the treated peptide is still present as compared to the HPLC peak of the untreated peptide)”.

Turning to “21 (GSRCQLQGFNCVVRSYGLPTIPCCRGLTCRSYFPGSTYGRCQRY) [compound 21]”, in series [1], the “Resistance to Temperature (75° C.)” value is “High (A peptide classified as high indicates that the majority (at least 75%) of the HPLC peak of the treated peptide is still present as compared to the HPLC peak of the untreated peptide)” and the “Resistance to Temperature (100° C.)” value was “Low (A peptide classified as low indicates that the majority (over 75%) of the HPLC peak of the treated peptide disappeared as compared to the HPLC peak of the untreated peptide)”. Further, the “Resistance to DTT Reduction (10 mM)” value in series [2] was “Low (A peptide classified as low indicates that the majority (over 75%) of the HPLC peak of the treated peptide disappeared as compared to the HPLC peak of the untreated peptide)”. In addition, in the series with trypsin, the “Resistance to Trypsin (500 U/ml)” value was “Moderate (A peptide classified as medium indicates that about half (between 25% and 75%) of the HPLC peak of the treated peptide disappeared as compared to the HPLC peak of the untreated peptide)”. Further, the “Resistance to Pepsin (500 U/ml)” value with pepsin is reported as “High (A peptide classified as high indicates that the majority (at least 75%) of the HPLC peak of the treated peptide is still present as compared to the HPLC peak of the untreated peptide)”.

With “23 (GSEVIRCSGSKQCYGPCKQQTGCTNSKCMNKVCKCYGCG) [compound 23]”, in series [1], the “Resistance to Temperature (75° C.)” value was “High (A peptide classified as high indicates that the majority (at least 75%) of the HPLC peak of the treated peptide is still present as compared to the HPLC peak of the untreated peptide)” and the “Resistance to Temperature (100° C.)” value was “Low (A peptide classified as low indicates that the majority (over 75%) of the HPLC peak of the treated peptide disappeared as compared to the HPLC peak of the untreated peptide)”. The “Resistance to DTT Reduction (10 mM)” value in series [2] is listed as “Low (A peptide classified as low indicates that the majority (over 75%) of the HPLC peak of the treated peptide disappeared as compared to the HPLC peak of the untreated peptide)”. For the same substance, the “Resistance to Trypsin (500 U/ml)” value with trypsin is listed as “Low (A peptide classified as low indicates that the majority (over 75%) of the HPLC peak of the treated peptide disappeared as compared to the HPLC peak of the untreated peptide)”. The “Resistance to Pepsin (500 U/ml)” value in the series with pepsin is on record as “High (A peptide classified as high indicates that the majority (at least 75%) of the HPLC peak of the treated peptide is still present as compared to the HPLC peak of the untreated peptide)”.

In the case of “25 (GSACLAEYQKCEGSTVPCCPGLSCSAGRFRKTKLCTK) [compound 25]”, in series [1], the “Resistance to Temperature (70° C.)” value is recorded as “High (A peptide classified as high indicates that the majority (at least 75%) of the HPLC peak of the treated peptide is still present as compared to the HPLC peak of the untreated peptide)”, the “Resistance to Temperature (75° C.)” value is recorded as “High (A peptide classified as high indicates that the majority (at least 75%) of the HPLC peak of the treated peptide is still present as compared to the HPLC peak of the untreated peptide)” and the “Resistance to Temperature (100° C.)” value is listed as “Low (A peptide classified as low indicates that the majority (over 75%) of the HPLC peak of the treated peptide disappeared as compared to the HPLC peak of the untreated peptide)”. Also, the “Resistance to DTT Reduction (10 mM)” value in series [2] is listed as “Low (A peptide classified as low indicates that the majority (over 75%) of the HPLC peak of the treated peptide disappeared as compared to the HPLC peak of the untreated peptide)”. The “Resistance to Trypsin (500 U/ml)” value in the series with trypsin is on record as “Low (A peptide classified as low indicates that the majority (over 75%) of the HPLC peak of the treated peptide disappeared as compared to the HPLC peak of the untreated peptide)”. Moreover, in the series with pepsin, the “Resistance to Pepsin (500 U/ml)” value is reported as “High (A peptide classified as high indicates that the majority (at least 75%) of the HPLC peak of the treated peptide is still present as compared to the HPLC peak of the untreated peptide)”.

On to “32 (GSSCAKPRENCNRMNILCCRGECVCPTFGDCFCYGD) [compound 32]”, for which, in series [1], the “Resistance to Temperature (70° C.)” value is given as “High (A peptide classified as high indicates that the majority (at least 75%) of the HPLC peak of the treated peptide is still present as compared to the HPLC peak of the untreated peptide)”, the “Resistance to Temperature (75° C.)” value is listed as “High (A peptide classified as high indicates that the majority (at least 75%) of the HPLC peak of the treated peptide is still present as compared to the HPLC peak of the untreated peptide)” and the “Resistance to Temperature (100° C.)” value is “High (A peptide classified as high indicates that the majority (at least 75%) of the HPLC peak of the treated peptide is still present as compared to the HPLC peak of the untreated peptide)”. The “Resistance to DTT Reduction (10 mM)” value in series [2] is given as “Low (A peptide classified as low indicates that the majority (over 75%) of the HPLC peak of the treated peptide disappeared as compared to the HPLC peak of the untreated peptide)”. Also, the “Resistance to Trypsin (500 U/ml)” value with trypsin is “Low (A peptide classified as low indicates that the majority (over 75%) of the HPLC peak of the treated peptide disappeared as compared to the HPLC peak of the untreated peptide)”. In the series with pepsin, the “Resistance to Pepsin (500 U/ml)” value is given as “High (A peptide classified as high indicates that the majority (at least 75%) of the HPLC peak of the treated peptide is still present as compared to the HPLC peak of the untreated peptide)”.

For “34 (GSGCFGYKCDYYKGCCSGYVCSPTWKWCVRPGPGR) [compound 34]”, in series [1], the “Resistance to Temperature (75° C.)” value was “High (A peptide classified as high indicates that the majority (at least 75%) of the HPLC peak of the treated peptide is still present as compared to the HPLC peak of the untreated peptide)” and the “Resistance to Temperature (100° C.)” value is reported as “Low (A peptide classified as low indicates that the majority (over 75%) of the HPLC peak of the treated peptide disappeared as compared to the HPLC peak of the untreated peptide)”. The “Resistance to DTT Reduction (10 mM)” value in series [2] is “Low (A peptide classified as low indicates that the majority (over 75%) of the HPLC peak of the treated peptide disappeared as compared to the HPLC peak of the untreated peptide)”. Besides, in the series with trypsin, the “Resistance to Trypsin (500 U/ml)” value is on record as “Low (A peptide classified as low indicates that the majority (over 75%) of the HPLC peak of the treated peptide disappeared as compared to the HPLC peak of the untreated peptide)”. Also, the “Resistance to Pepsin (500 U/ml)” value with pepsin is “Low (A peptide classified as low indicates that the majority (over 75%) of the HPLC peak of the treated peptide disappeared as compared to the HPLC peak of the untreated peptide)”.

For the substance “46 (GSDCKYKFENWGACDGGTGTKVRQGTLKKARYNAQCQETIRVTKPC) [compound 46]”, in series [1], the “Resistance to Temperature (75° C.)” value was “High (A peptide classified as high indicates that the majority (at least 75%) of the HPLC peak of the treated peptide is still present as compared to the HPLC peak of the untreated peptide)” and the “Resistance to Temperature (100° C.)” value is “Low (A peptide classified as low indicates that the majority (over 75%) of the HPLC peak of the treated peptide disappeared as compared to the HPLC peak of the untreated peptide)”. In series [2], the “Resistance to DTT Reduction (10 mM)” value is listed as “Low (A peptide classified as low indicates that the majority (over 75%) of the HPLC peak of the treated peptide disappeared as compared to the HPLC peak of the untreated peptide)”. In the series with trypsin, the “Resistance to Trypsin (500 U/ml)” value is recorded as “Low (A peptide classified as low indicates that the majority (over 75%) of the HPLC peak of the treated peptide disappeared as compared to the HPLC peak of the untreated peptide)”. Further, in the series with pepsin, the “Resistance to Pepsin (500 U/ml)” value is recorded as “Low (A peptide classified as low indicates that the majority (over 75%) of the HPLC peak of the treated peptide disappeared as compared to the HPLC peak of the untreated peptide)”.
